The text below walks through data of paper PMC5347031, “Characterization of long and stable de novo single alpha-helix domains provides novel insight into their stability” (Scientific Reports, 2017).

This data set deals with the molecule itself. Description: SEC; Superdex 75, 200 μl of 20-40 μM protein, 150 mM NaCl, 10 mM sodium phosphate, 0.03% NaN3, pH 7.4, 0.5 ml/min.

B1: EK2 de novo polypeptide (AEEAKKA repeats) (other)
chain: SAEEAKKAAEEAKKAAEEAKKAAEEAKKAAEEAKKAAEEAKKAAEEAKKAAEEAKKAAEEAKKAAEEAKKAAEEAKKAAEEAKKAAEEAKKAAEEAKW
As for B1, the “stoichiometry N” value was roughly 2.

What is called stoichiometry N is a count of units in the complex or per binding partner.
